Measured values taken from patent publication US20140205597A1 (published 2014).

Experiments:
cMet/Fc = molecular target: T1, cMet/Fc (UniProt P08581 25-932); assay: HGF-competition Alphascreen, monovalent form
T1 construct: not shown: Fc part not specified

[1] = molecular target: T2, monoclonal antibody 21-4-3; assay: Biacore, captured 21-4-3
T2 construct: mouse IgG1 heavy chain, kappa light chain; also called mAb21-4-3; produced by hybridoma ABH0015 (LMBP-9680-CB)
Experimental: Binding measurements were performed using a Biacore T100 using a CM5 T120416 sensor chip, with running buffer HBS-EP+, 25° C. […] The anti-mouse IgG used was a polyclonal rabbit anti-mouse IgG antibodies reacting with all IgG subclasses, IgA and IgM (GE Healthcare; Cat#BR-1008-38; Lot#10056316). Immobilisation of the anti-mouse IgG was performed using manual amine coupling using a 7 minute injection of EDC/NHS for activation and a 7 minute injection of 1M ethanolamine HCl pH 8.5 for deactivation (Biacore, amine coupling kit).

[2] = molecular target: T3, purified interference factor(s) from serum of Donor A; assay: Biacore, immobilized interference factor
T3 construct: text names Donors 8, 19 and 30

[3] = molecular target: T4, purified interference factor(s) from serum of Donor B; assay: Biacore, immobilized interference factor
T4 construct: text names Donors 8, 19 and 30

[4] = molecular target: T5, purified interference factor(s) from serum of Donor C; assay: Biacore, immobilized interference factor
T5 construct: text names Donors 8, 19 and 30

T1 sequence (P08581 25-932): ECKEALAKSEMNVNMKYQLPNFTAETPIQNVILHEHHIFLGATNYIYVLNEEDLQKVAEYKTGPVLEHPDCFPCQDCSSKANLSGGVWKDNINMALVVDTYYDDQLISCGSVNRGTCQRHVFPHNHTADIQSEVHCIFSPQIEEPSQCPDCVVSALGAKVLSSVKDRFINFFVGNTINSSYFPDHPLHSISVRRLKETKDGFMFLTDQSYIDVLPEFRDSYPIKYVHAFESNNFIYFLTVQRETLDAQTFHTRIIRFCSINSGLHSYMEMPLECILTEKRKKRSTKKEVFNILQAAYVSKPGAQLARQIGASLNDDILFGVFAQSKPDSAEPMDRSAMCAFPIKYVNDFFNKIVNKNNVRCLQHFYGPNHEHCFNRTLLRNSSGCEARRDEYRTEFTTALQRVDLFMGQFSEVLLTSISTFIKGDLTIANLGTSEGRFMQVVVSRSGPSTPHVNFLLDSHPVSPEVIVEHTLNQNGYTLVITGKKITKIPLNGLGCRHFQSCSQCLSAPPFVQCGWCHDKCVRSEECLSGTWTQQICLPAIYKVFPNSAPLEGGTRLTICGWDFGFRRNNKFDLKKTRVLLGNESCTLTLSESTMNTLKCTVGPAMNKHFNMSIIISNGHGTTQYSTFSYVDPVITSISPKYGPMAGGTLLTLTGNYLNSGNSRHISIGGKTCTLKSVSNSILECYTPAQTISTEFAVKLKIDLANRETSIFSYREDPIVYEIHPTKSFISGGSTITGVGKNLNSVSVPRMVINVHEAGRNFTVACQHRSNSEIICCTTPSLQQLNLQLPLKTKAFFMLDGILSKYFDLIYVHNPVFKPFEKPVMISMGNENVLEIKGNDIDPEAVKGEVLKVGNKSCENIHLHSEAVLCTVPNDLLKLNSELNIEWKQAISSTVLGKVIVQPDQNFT

Binder | IC50 (cMet/Fc) | binding vs Reference Sequence (=100%) [1] | binding vs Reference Sequence (=100%) [2] | binding vs Reference Sequence (=100%) [3] | binding vs Reference Sequence (=100%) [4]
A007901255, monovalent form (VHH, anti-c-MET Nanobody) VHH: DVQLVESGGGLVQPGGSLRLSCAASGFTFDDYAIGWFRQAPGEEREGVSSISSTYGLTYYADSVKGRFTISSDNSKNTVYLQMNSLRPEDTAVYYCAATPIGLIGLDAYEYDYWGQGTLVTVSS | 91 pM |  |  |  | 
A007901256, monovalent form (VHH, anti-c-MET Nanobody) VHH: DVQLVESGGGLVQPGGSLRLSCAASGFAFDDYAIGWFRQAPGEEREGVSSISSTYGLTYYADSVKGRFTISSDNSKNTVYLQMNSLRPEDTAVYYCAATPIGLIGLDAYEYDYWGQGTLVTVSS | 48 pM |  |  |  | 
A007901259, monovalent form (VHH, anti-c-MET Nanobody) VHH: DVQLVESGGGLVQPGGSLRLSCAASGFTFDDYAIGWFRQAPGEERLGVSSISSTYGLTYYADSVKGRFTISSDNSKNTVYLQMNSLRPEDTAVYYCAATPIGLIGLDAYEYDYWGQGTLVTVSS | 43 pM |  |  |  | 
A007901260, monovalent form (VHH, anti-c-MET Nanobody) VHH: DVQLVESGGGLVQPGGSLRLSCAASGFAFDDYAIGWFRQAPGEERLGVSSISSTYGLTYYADSVKGRFTISSDNSKNTVYLQMNSLRPEDTAVYYCAATPIGLIGLDAYEYDYWGQGTLVTVSS | 35 pM |  |  |  | 
SEQ ID NO 83 (VHH, T87A) VHH: EVQLVESGGGLVQPGGSLRLSCAASRSIGRLDRMGWYRHRPGEPRELVATITGGSSINYGDSVKGRFTISIDNSKNTVYLQMNSLRPEDAAVYYCNFNKYVTSRDTWGQGTLVTVSS |  | 79% | 56% | 73% | 61%
SEQ ID NO 79 (VHH, C-terminal: GG) VHH: EVQLVESGGGLVQPGGSLRLSCAASRSIGRLDRMGWYRHRPGEPRELVATITGGSSINYGDSVKGRFTISIDNSKNTVYLQMNSLRPEDTAVYYCNFNKYVTSRDTWGQGTLVTVSS |  | 2% | 1% | 17% | 13%
SEQ ID NO 75 (VHH, C-terminal: AA) VHH: EVQLVESGGGLVQPGGSLRLSCAASRSIGRLDRMGWYRHRPGEPRELVATITGGSSINYGDSVKGRFTISIDNSKNTVYLQMNSLRPEDTAVYYCNFNKYVTSRDTWGQGTLVTVSS |  | 1% | 1% | 11% | 16%
SEQ ID NO 76 (VHH, C-terminal: GGG) VHH: EVQLVESGGGLVQPGGSLRLSCAASRSIGRLDRMGWYRHRPGEPRELVATITGGSSINYGDSVKGRFTISIDNSKNTVYLQMNSLRPEDTAVYYCNFNKYVTSRDTWGQGTLVTVSS |  | 2% | 2% | 17% | 20%
SEQ ID NO 74 (VHH, C-terminal: G) VHH: EVQLVESGGGLVQPGGSLRLSCAASRSIGRLDRMGWYRHRPGEPRELVATITGGSSINYGDSVKGRFTISIDNSKNTVYLQMNSLRPEDTAVYYCNFNKYVTSRDTWGQGTLVTVSS |  | 1% | 4% | 41% | 33%
SEQ ID NO 77 (VHH, C-terminal: A) VHH: EVQLVESGGGLVQPGGSLRLSCAASRSIGRLDRMGWYRHRPGEPRELVATITGGSSINYGDSVKGRFTISIDNSKNTVYLQMNSLRPEDTAVYYCNFNKYVTSRDTWGQGTLVTVSS |  | 1% | 2% | 12% | 13%
SEQ ID NO 84 (VHH, S112G) VHH: EVQLVESGGGLVQPGGSLRLSCAASRSIGRLDRMGWYRHRPGEPRELVATITGGSSINYGDSVKGRFTISIDNSKNTVYLQMNSLRPEDTAVYYCNFNKYVTSRDTWGQGTLVTVGS |  | 91% | 84% | 50% | 83%
SEQ ID NO 87 (VHH, L11S, S112G, S113G) VHH: EVQLVESGGGSVQPGGSLRLSCAASRSIGRLDRMGWYRHRPGEPRELVATITGGSSINYGDSVKGRFTISIDNSKNTVYLQMNSLRPEDTAVYYCNFNKYVTSRDTWGQGTLVTVGG |  | 41% | 51% | 5% | 39%
SEQ ID NO 73 (VHH, C-terminal: G; S112G, S113G) VHH: EVQLVESGGGLVQPGGSLRLSCAASRSIGRLDRMGWYRHRPGEPRELVATITGGSSINYGDSVKGRFTISIDNSKNTVYLQMNSLRPEDTAVYYCNFNKYVTSRDTWGQGTLVTVGG |  | 1% | 6% | 8% | 9%
SEQ ID NO 86 (VHH, L11S, T110Q) VHH: EVQLVESGGGSVQPGGSLRLSCAASRSIGRLDRMGWYRHRPGEPRELVATITGGSSINYGDSVKGRFTISIDNSKNTVYLQMNSLRPEDTAVYYCNFNKYVTSRDTWGQGTLVQVSS |  | 64% | 76% | 6% | 86%
SEQ ID NO 89 (VHH, L11S, P14A, T110Q, S112G, S113G) VHH: EVQLVESGGGSVQAGGSLRLSCAASRSIGRLDRMGWYRHRPGEPRELVATITGGSSINYGDSVKGRFTISIDNSKNTVYLQMNSLRPEDTAVYYCNFNKYVTSRDTWGQGTLVQVGG |  | 2% | 14% | 5% | 17%
SEQ ID NO 88 (VHH, C-terminal: A; L11S, T110Q) VHH: EVQLVESGGGSVQPGGSLRLSCAASRSIGRLDRMGWYRHRPGEPRELVATITGGSSINYGDSVKGRFTISIDNSKNTVYLQMNSLRPEDTAVYYCNFNKYVTSRDTWGQGTLVQVSS |  | 1% | 1% | 5% | 11%
SEQ ID NO 85 (VHH, L11S, T110Q, S112G, S113G) VHH: EVQLVESGGGSVQPGGSLRLSCAASRSIGRLDRMGWYRHRPGEPRELVATITGGSSINYGDSVKGRFTISIDNSKNTVYLQMNSLRPEDTAVYYCNFNKYVTSRDTWGQGTLVQVGG |  | 32% | 46% | 5% | 42%
